Measured values published in patent publication US7109167.
Each block holds one substance with its values, some of them ahead of it.

Tests used:
[1] = molecular target: endothelial cell receptor for TKPPR on human aortic endothelial cells (HAEC); test: fluorescent beads on confluent HAEC, static, Experiment 1, image analysis
[2] = molecular target: endothelial cell receptor for TKPPR on human aortic endothelial cells (HAEC); test: competition on HAEC: KDR/Fc 1000 ng/ml against 5% BRU-114 bubbles
[3] = molecular target: endothelial cell receptor for TKPPR on human aortic endothelial cells (HAEC); test: competition on HAEC: KDR/Fc 250 ng/ml against 5% BRU-114 bubbles
[4] = molecular target: endothelial cell receptor for TKPPR on human aortic endothelial cells (HAEC); test: competition on HAEC: KDR/Fc 500 ng/ml against 5% BRU-114 bubbles
[5] = molecular target: endothelial cell receptor for TKPPR on human aortic endothelial cells (HAEC); test: competition on HAEC: KDR/Fc 2500 ng/ml against 5% BRU-114 bubbles
[6] = molecular target: endothelial cell receptor for TKPPR on human aortic endothelial cells (HAEC); test: competition on HAEC: KDR/Fc 125 ng/ml against 5% BRU-114 bubbles
[7] = molecular target: endothelial cell receptor for TKPPR on human aortic endothelial cells (HAEC); test: competition on HAEC: VEGF165 25 ng/ml against 2% BRU-114 bubbles
[8] = molecular target: endothelial cell receptor for TKPPR on human aortic endothelial cells (HAEC); test: competition on HAEC: VEGF165 against 5% BRU-114 bubbles
[9] = molecular target: endothelial cell receptor for TKPPR on human aortic endothelial cells (HAEC); test: competition on HAEC: VEGF165 25 ng/ml against 5% BRU-114 bubbles
[10] = molecular target: endothelial cell receptor for TKPPR on human aortic endothelial cells (HAEC); test: competition on HAEC: VEGF165 200 ng/ml against 2% BRU-114 bubbles
[11] = molecular target: endothelial cell receptor for TKPPR on human aortic endothelial cells (HAEC); test: competition on HAEC: VEGF165 75 ng/ml against 5% BRU-114 bubbles
[12] = molecular target: endothelial cell receptor for TKPPR on human aortic endothelial cells (HAEC); test: competition on HAEC: VEGF165 6.25 ng/ml against 5% BRU-114 bubbles
[13] = molecular target: endothelial cell receptor for TKPPR on human aortic endothelial cells (HAEC); test: competition on HAEC: VEGF165 12.5 ng/ml against 5% BRU-114 bubbles
[14] = molecular target: endothelial cell receptor for TKPPR on human aortic endothelial cells (HAEC); test: competition on HAEC: VEGF165 50 ng/ml against 5% BRU-114 bubbles
[15] = molecular target: endothelial cell receptor for TKPPR on human aortic endothelial cells (HAEC); test: competition on HAEC: VEGF165 100 ng/ml against 2% BRU-114 bubbles
[16] = molecular target: endothelial cell receptor for TKPPR on human aortic endothelial cells (HAEC); test: competition on HAEC: VEGF121 100 ng/ml against 2% BRU-114 bubbles
[17] = molecular target: endothelial cell receptor for TKPPR on human aortic endothelial cells (HAEC); test: competition on HAEC: VEGF121 400 ng/ml against 2% BRU-114 bubbles
[18] = molecular target: endothelial cell receptor for TKPPR on human aortic endothelial cells (HAEC); test: competition on HAEC: VEGF121 200 ng/ml against 2% BRU-114 bubbles

Chain of soluble human KDR/Fc chimera (R&D Systems) (P35968 20-764, change not shown): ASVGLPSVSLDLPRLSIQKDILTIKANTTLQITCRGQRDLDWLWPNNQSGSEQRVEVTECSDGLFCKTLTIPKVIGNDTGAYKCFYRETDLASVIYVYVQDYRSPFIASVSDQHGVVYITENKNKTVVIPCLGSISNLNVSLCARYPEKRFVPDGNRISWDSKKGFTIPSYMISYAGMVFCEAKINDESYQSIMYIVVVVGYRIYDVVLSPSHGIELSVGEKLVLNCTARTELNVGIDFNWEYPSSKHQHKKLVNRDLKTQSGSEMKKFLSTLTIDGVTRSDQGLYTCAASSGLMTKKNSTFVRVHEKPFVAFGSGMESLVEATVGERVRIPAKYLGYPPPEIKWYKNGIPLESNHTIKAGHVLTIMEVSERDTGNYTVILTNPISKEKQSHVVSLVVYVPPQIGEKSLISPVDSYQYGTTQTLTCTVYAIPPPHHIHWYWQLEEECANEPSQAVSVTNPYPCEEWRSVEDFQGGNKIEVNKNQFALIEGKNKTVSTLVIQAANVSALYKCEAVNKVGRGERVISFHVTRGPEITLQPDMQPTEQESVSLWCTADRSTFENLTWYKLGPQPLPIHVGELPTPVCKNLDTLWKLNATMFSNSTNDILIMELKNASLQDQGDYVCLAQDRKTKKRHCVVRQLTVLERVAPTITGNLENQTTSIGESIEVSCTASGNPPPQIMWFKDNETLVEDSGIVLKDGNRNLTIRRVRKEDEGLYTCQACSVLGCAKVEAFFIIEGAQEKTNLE

Integrated density of bound beads (arbitrary units) [1]: 1.61
Substance: BSA-conjugated fluorescent microspheres (from UniProt P02769 25-607)

Bubbles Bound [2]: 75 bubbles
Bubbles Bound [3]: 786 bubbles
Bubbles Bound [4]: 342 bubbles
Bubbles Bound [5]: 84 bubbles
Bubbles Bound [6]: 1030 bubbles
Substance: soluble human KDR/Fc chimera (R&D Systems) (from UniProt P35968 20-764) (Fc fusion)

Bubbles Bound [7]: 144 bubbles
IC50 [8]: 0.0125 µg/mL
Bubbles Bound [9]: 342 bubbles
Bubbles Bound [10]: 70 bubbles
Bubbles Bound [11]: 190 bubbles
Bubbles Bound [12]: 1180 bubbles
Bubbles Bound [13]: 599 bubbles
Bubbles Bound [14]: 226 bubbles
Bubbles Bound [15]: 94 bubbles
Substance: VEGF165 (from UniProt P15692 27-191) (ligand)

Bubbles Bound [16]: 878 bubbles
Bubbles Bound [17]: 778 bubbles
Bubbles Bound [18]: 849 bubbles
Substance: VEGF121 (from UniProt P15692 27-147) (ligand)
